Data: article PMC12340910, “Structural basis for transport and inhibition of nucleotide sugar transport in pathogenic fungi” (Research Square, 2025)

How the values were obtained:
[1] = biological target: T1, CaVrg4; C. albicans Vrg4; GDP-mannose transporter Vrg4 (Candida albicans, UniProt Q5A477); experiment: cryo-EM structure, […] Å; format: binding; settings: complex with nanobody NB4, cytoplasmic-facing state; endogenous co-purified ligand; density suboptimal for precise ligand modelling
T1 construct: first 33 residues excluded; expressed in S. cerevisiae BJ5460 from pDDGFP-Leu2D; His-tagged GFP fusion cut by TEV; DDM/DM purified, reconstituted into liposomes; ~37 kDa
T1 sequence (Q5A477 34-371): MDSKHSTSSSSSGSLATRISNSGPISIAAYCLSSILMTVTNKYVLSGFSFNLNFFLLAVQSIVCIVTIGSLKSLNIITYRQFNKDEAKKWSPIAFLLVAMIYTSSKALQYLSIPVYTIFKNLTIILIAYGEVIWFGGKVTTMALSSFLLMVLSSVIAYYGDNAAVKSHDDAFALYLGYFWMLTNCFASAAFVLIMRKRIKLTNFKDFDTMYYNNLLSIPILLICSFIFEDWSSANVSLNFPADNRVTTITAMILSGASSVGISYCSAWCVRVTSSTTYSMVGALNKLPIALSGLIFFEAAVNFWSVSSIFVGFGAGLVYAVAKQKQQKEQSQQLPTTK

[2] = biological target: T2, Candida albicans Vrg4, Avi-tagged (C terminus), biotinylated (Candida albicans (UniProt Q5A477, …, UniProt Q5A477)); experiment: ELISA; dilution series of each nanobody captured by its Myc tag on MaxiSorp plates with protein A and anti-c-Myc antibody; 50 nM biotinylated CaVrg4 added for 40 minutes; streptavidin-peroxidase polymer, TMB, absorbance at 650 nm; KD from the 'one site - total binding' equation; settings: both partners purified
T2 construct: also called biotinylated CaVrg4; purified CaVrg4; source: S. cerevisiae BJ5460, purified as the untagged version, biotinylated using BirA ligase; not shown: Avi tag, C-terminal, kept

For `Nc1nc2c(ncn2[C@@H]2O[C@H](COP(=O)(O)OP(=O)(O)O[C@H]3O[C@H](CO)[C@@H](O)[C@H](O)[C@@H]3O)[C@@H](O)[C@H]2O)c(=O)[nH]1` [GDP-mannose], the “cryo-EM structure, 3.4 Å” value [1] was “in the maps obtained for the NB4-bound structure, we observed density consistent with the endogenous ligand”.

B1: Nanobody NB4 (VHH)
VHH: QVQLVESGGGLVQAGGSLRLSCAASGRTFRSYTLGWFRQAPGKEREFVAAIKWSTDTTYYADSVKGRFTISGDNAKNTVYLQMNSLKPEDTAVYFCAARSLSTVIAGPEIPWPYNSWGQGTQVTVSS
notes: source: subcloned into the pSBinit vector and purified; not shown: Myc, C-terminal, kept; His, C-terminal, kept
B1 gave a Kd [2] of roughly 10 nM.

B2: Nanobody NB3 (VHH)
VHH: QVQLVESGGGLVQPGGSLRLSCAASGSISEINVMGWYRQAPGKQRELVARITTGGSTNYADSVKGRFTISRDNAKNTVYLQMNSLKPEDTAVYMCNAHRRVVMEWGPLGYDYWGQGTQVTVSS
notes: as for B1
Work on B2 yielded a Kd [2] of roughly 3 nM.
